From patent publication US20240002497A1 (Merck Sharp & Dohme, published 2024)

How the values were obtained:
[1] = molecular target: T1, rhNav1.7α + β1-β2-β3 (rhesus Nav1.7α co-expressed with Navβ1, Navβ2 and Navβ3) (rhesus monkey); assay: binding FACS; plus = higher activity than reference
T1 construct: also called rhNav1.7-beta1-beta2-beta3

[2] = molecular target: T2, huNav1.7α + β1-β2-β3 (human, UniProt Q15858 1-1988; A5A6L6 19-218; O60939 30-215; Q2KI11 23-215); assay: cell-based or functional assay
[3] = molecular target: Rhesus Nav1.7α (rhesus, UniProt Q15858 1-1988 (human entry)); assay: cell-based or functional assay
[4] = molecular target: rhNav1.7α + β1-β2-β3 (rhesus monkey); assay: cell-based or functional assay
[5] = molecular target: T3, huNav1.7α (human, UniProt Q15858 1-1988); assay: cell-based or functional assay
[6] = molecular target: T4, huNav1.7α + β1 (human); assay: competition FACS vs EC25 of F103275B05(N93R), HEK
T4 construct: HEK293 cells; also called huNav1.7-beta1; huNav1.7-β1

[7] = molecular target: T3, huNav1.7α; assay: competition FACS vs EC25 of F103275B05(N93R), HEK
[8] = molecular target: T2, huNav1.7α + β1-β2-β3; assay: competition FACS vs EC25 of F103275B05(N93R), CHO FlpIn
[9] = molecular target: T2, huNav1.7α + β1-β2-β3; assay: competition FACS vs EC25 of F103275B05(N93R), HEK FlpIn
[10] = molecular target: T5, rhNav1.7α + β1-β2-β3 (rhesus monkey); assay: competition FACS vs EC40 of F103275B05(N93R), CHO FlpIn
T5 construct: also called rhNav1.7-beta1-beta2-beta3; rhNav1.7-β1-β2-β3

EC50 fold change compared to reference [1] [fold] | Qpatch IC50 [2] [µM] | Qpatch IC50 [3] [µM] | Qpatch IC50 [4] [µM] | Qpatch IC50 [5] [µM] | IC50 [6] [µM] | IC50 [7] [µM] | IC50 [8] [µM] | IC50 [9] [µM] | IC50 [10] [µM] | Binder
3 | – | – | – | – | – | – | – | – | – | F010301892 (VHH, also called F0103464B09(V33L); V33L) VHH: EVQLVESGGGLVQPGGSLRLSCATTSRAFIRDLFTGWYRRVPGKERELVARIYNGGNTNYADFAKGRFSISRDNAKKMVTLRMSNLKPEDTGVYYCLFSGTINTGREYRSGDYWGQGTLVTVSS
– | 0.0008 | 0.104 | 0.075 | 0.074 | 0.14 | 0.086 | 0.0041 | 0.0052 | 0.0012 | F010302377 (bispecific antibody, also called F0103275B05(E1D, N93R)-50GS-F0103492E09-FLAG3-HIS6) DVQLVESGGGLVQPGGSLRLSCAASGSIFNINSMAWYRRAPGKQRELVASSTNGGSTNYADSVKGRFTISRDNAKRVYLQMNSLTPEDTAVYYCRALLQPSIYDISRTYWGQGTLVTVSSGGGGSGGGGSGGGGSGGGGSGGGGSGGGGSGGGGSGGGGSGGGGSGGGGSEVQLVESGGGLVQAGGSLRLSCAASKSILSFAYMRWYRQAPGKQREFVASIAIGGATSYTDSVKGRFTISRDNAKNTVYLQMNSLKPEDTAVYYCSAPAGQYRGQGTLVTVSSGAADYKDHDGDYKDHDIDYKDDDDKGAAHHHHHH
– | 0.0026 | 0.093 | 0.0028 | 0.123 | 0.0043 | 0.11 | 0.012 | 0.01 | 0.0065 | F010302375 (bispecific antibody, also called F0103275B05(E1D, N93R)-50GS-F0103478E09(L108Q)-FLAG3-HIS6) DVQLVESGGGLVQPGGSLRLSCAASGSIFNINSMAWYRRAPGKQRELVASSTNGGSTNYADSVKGRFTISRDNAKRVYLQMNSLTPEDTAVYYCRALLQPSIYDISRTYWGQGTLVTVSSGGGGSGGGGSGGGGSGGGGSGGGGSGGGGSGGGGSGGGGSGGGGSGGGGSEVQLVESGGGLVQAGGSLRLSCAASGRAFSTLAMGWFRQAPGKEREFVAAISRNGNNSATGDSLKGRFTISRDSTKSTVFLQMNTLKPEDTAVYYCAAISTPSASHPYVRKESYRYWGQGTQVTVSSGAADYKDHDGDYKDHDIDYKDDDDKGAAHHHHHH

Further lines, the binder ahead of its results:

Binder | EC50 fold change compared to reference [1] [fold] | Qpatch IC50 [2] [µM] | Qpatch IC50 [3] [µM] | Qpatch IC50 [4] [µM] | Qpatch IC50 [5] [µM] | IC50 [6] [µM] | IC50 [7] [µM] | IC50 [8] [µM] | IC50 [9] [µM] | IC50 [10] [µM]
F010301886 (VHH, also called F0103464B09(N58Q); N58Q) VHH: EVQLVESGGGLVQPGGSLRLSCATTSRAFIRDVFTGWYRRVPGKERELVARIYNGGNTQYADFAKGRFSISRDNAKKMVTLRMSNLKPEDTGVYYCLFSGTINTGREYRSGDYWGQGTLVTVSS | 2 | – | – | – | – | – | – | – | – | –
F010301888 (VHH, also called F0103464B09(S26H); S26H) VHH: EVQLVESGGGLVQPGGSLRLSCATTHRAFIRDVFTGWYRRVPGKERELVARIYNGGNTNYADFAKGRFSISRDNAKKMVTLRMSNLKPEDTGVYYCLFSGTINTGREYRSGDYWGQGTLVTVSS | 3 | – | – | – | – | – | – | – | – | –
F010302379 (bispecific antibody, also called F0103275B05(E1D, N93R)-50GS-F0103500E03(P14A, L108Q)-FLAG3-HIS6) DVQLVESGGGLVQPGGSLRLSCAASGSIFNINSMAWYRRAPGKQRELVASSTNGGSTNYADSVKGRFTISRDNAKRVYLQMNSLTPEDTAVYYCRALLQPSIYDISRTYWGQGTLVTVSSGGGGSGGGGSGGGGSGGGGSGGGGSGGGGSGGGGSGGGGSGGGGSGGGGSEVQLVESGGGLVQAGGSLRLSCAASGRTFSRYQMGWFRQAPGKEREFVAYISWSGSTRYVDSVKGRFTISRDNAKNTVYLQMNSLKPEDTAVYHCAAGTAGIISSRPETYDSWGQGTQVTVSSGAADYKDHDGDYKDHDIDYKDDDDKGAAHHHHHH | – | 0.0034 | 0.133 | 0.131 | 0.111 | 0.15 | 0.085 | 0.019 | 0.016 | 0.0048
F010302378 (bispecific antibody, also called F0103275B05(E1D, N93R)-50GS-F0103495F09-FLAG3-HIS6) DVQLVESGGGLVQPGGSLRLSCAASGSIFNINSMAWYRRAPGKQRELVASSTNGGSTNYADSVKGRFTISRDNAKRVYLQMNSLTPEDTAVYYCRALLQPSIYDISRTYWGQGTLVTVSSGGGGSGGGGSGGGGSGGGGSGGGGSGGGGSGGGGSGGGGSGGGGSGGGGSEVQLVESGGGLVQAGSSLSLSCAASGRALSTYAMGWFRQAPGKEREFVARISRSGITTYYTDSVKGRFTISRDRAKDTVYLQMNSLKPEDTAIYLCAADASTNPAGYYLRNRYDYWGQGTLVTVSSGAADYKDHDGDYKDHDIDYKDDDDKGAAHHHHHH | – | 0.0023 | 0.103 | 0.0026 | 0.115 | 0.0052 | 0.08 | 0.01 | 0.012 | 0.0066
